How the values were obtained:
HeLa Kyoto [1] = assay: solubility in G1/S (NP-40 vs SDS abundance) (log2 ratio); higher = more soluble; conditions: cell cycle stage: G1/S
HeLa Kyoto [2] = assay: solubility change mitosis vs G1/S (difference of NP-40 vs SDS log2 ratios) (log2 ratio difference); higher = more soluble in mitosis
HeLa Kyoto [3] = assay: melting temperature (median over replicates), in situ; higher = more thermally stable
HeLa Kyoto [4] = assay: thermal stability score vs G1/S (z-score of summed log2 fold changes over temperatures); higher = more thermally stable than in G1/S
[5] = cell cycle stage: early G1 (4.5 h after nocodazole release)
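Throughout, for melting temperature (median over replicates), in situ: HeLa Kyoto cells synchronized by double thymidine or nocodazole block, proteins quantified by TMT10plex mass spectrometry, three independent biological replicates.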
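Throughout, for solubility change mitosis vs G1/S (difference of NP-40 vs SDS log2 ratios): synchronized HeLa Kyoto cells (double thymidine block for G1/S, nocodazole release for mitosis), protein amounts in NP-40 versus SDS lysates quantified by mass spectrometry, three biological replicates.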
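Throughout, for solubility in G1/S (NP-40 vs SDS abundance): HeLa Kyoto cells arrested at G1/S by double thymidine block, proteins quantified by TMT10plex mass spectrometry in mild NP-40 versus SDS extracts, three biological replicates.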
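Throughout, for thermal stability score vs G1/S (z-score of summed log2 fold changes over temperatures): synchronized HeLa Kyoto cells, proteins quantified by TMT10plex mass spectrometry, three biological replicates, mitosis taken 0.5 h after nocodazole release, G1/S directly after double thymidine block.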

Chain of ATR (chain, as listed by the source): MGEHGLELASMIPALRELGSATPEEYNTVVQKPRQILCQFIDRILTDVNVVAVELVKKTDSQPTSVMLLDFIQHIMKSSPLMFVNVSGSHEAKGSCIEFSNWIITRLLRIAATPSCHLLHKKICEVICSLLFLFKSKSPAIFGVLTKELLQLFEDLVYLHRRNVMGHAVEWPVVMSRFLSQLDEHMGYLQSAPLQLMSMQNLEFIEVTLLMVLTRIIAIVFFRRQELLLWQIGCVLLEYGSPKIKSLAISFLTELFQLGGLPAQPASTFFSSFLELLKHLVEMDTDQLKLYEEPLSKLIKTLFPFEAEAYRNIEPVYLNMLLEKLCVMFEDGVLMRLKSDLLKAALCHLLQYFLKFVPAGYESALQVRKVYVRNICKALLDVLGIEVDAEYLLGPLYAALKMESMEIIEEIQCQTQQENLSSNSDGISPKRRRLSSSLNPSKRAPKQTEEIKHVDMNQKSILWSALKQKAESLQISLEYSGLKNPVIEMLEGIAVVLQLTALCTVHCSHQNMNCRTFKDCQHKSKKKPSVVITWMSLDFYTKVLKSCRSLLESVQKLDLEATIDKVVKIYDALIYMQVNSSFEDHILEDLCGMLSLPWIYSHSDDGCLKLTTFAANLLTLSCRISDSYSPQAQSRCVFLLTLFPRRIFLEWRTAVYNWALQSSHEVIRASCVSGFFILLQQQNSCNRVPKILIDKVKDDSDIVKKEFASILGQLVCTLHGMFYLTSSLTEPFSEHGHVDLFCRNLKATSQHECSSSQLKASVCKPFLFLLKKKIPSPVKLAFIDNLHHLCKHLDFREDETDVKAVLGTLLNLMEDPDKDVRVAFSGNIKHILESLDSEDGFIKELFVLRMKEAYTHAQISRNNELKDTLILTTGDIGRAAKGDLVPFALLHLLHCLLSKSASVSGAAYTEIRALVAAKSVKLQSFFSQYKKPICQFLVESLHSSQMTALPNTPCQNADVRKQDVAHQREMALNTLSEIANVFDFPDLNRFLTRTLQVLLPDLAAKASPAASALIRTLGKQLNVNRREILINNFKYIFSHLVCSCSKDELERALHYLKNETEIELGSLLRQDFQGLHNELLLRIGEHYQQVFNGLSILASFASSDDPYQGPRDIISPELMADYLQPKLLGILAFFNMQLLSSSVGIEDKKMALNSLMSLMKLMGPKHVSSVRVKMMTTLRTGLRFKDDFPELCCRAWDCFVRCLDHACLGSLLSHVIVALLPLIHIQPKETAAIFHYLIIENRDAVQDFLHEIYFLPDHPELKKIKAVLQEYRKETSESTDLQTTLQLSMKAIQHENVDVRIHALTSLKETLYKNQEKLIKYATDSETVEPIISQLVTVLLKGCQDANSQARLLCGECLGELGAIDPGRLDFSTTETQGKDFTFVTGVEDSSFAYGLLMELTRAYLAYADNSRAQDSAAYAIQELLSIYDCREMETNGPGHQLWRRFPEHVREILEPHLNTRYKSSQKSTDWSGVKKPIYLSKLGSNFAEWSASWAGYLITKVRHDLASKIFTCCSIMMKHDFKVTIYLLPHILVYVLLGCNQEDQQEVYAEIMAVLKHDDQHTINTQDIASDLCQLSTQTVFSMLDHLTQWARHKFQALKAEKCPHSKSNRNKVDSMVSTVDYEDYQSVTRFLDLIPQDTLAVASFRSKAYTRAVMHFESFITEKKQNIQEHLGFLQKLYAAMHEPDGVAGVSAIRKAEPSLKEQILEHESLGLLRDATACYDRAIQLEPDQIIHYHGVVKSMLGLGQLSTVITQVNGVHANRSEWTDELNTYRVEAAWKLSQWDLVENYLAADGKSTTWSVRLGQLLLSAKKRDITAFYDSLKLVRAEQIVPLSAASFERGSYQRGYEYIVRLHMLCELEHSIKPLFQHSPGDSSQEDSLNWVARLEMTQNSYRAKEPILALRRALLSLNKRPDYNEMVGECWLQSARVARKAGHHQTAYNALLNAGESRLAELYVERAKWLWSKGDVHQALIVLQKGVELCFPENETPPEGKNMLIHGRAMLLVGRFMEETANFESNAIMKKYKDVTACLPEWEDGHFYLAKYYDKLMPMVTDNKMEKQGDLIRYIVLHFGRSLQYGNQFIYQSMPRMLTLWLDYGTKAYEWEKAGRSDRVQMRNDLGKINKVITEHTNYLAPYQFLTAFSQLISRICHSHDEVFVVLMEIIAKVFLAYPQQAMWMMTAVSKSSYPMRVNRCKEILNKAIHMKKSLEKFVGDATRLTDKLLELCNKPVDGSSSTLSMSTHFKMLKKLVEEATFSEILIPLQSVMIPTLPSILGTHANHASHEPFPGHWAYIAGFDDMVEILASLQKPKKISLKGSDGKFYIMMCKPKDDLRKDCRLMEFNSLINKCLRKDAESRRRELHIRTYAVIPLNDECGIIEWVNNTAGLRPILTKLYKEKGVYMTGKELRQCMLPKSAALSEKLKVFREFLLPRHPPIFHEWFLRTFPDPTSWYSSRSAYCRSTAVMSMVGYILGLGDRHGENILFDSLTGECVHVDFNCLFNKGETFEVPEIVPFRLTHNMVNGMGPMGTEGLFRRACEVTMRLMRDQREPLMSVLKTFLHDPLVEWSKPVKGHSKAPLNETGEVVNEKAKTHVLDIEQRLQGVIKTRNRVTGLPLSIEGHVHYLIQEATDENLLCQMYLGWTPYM

Substance | solubility in G1/S (log2) (HeLa Kyoto [1]) | solubility change mitosis (log2) (HeLa Kyoto [2]) | melting temperature (HeLa Kyoto [3]; cell cycle stage: G1/S) | melting temperature (HeLa Kyoto [3]; cell cycle stage: mitosis) | thermal stability score (HeLa Kyoto [4]; [5]) | thermal stability score (HeLa Kyoto [4]; cell cycle stage: mitosis)
MKMAAPTANKAASLGCNNKPAFPELDFRSGARVEELNKLIQEFTKHDQREYDDQRALEIHTAKDFIFSMLGMVQKLDQKLPVANEYLLLSGGVREGVVDLDLDELNVYARGTDYDMDFTLLVPALKLHDRNQPVTLDMRHSALCHSWLSLRLFDEGTISKWKDCCTIVDHINGATNYFFSPTKVADWFYDSISIVLSEIQKKPQRGMPKVEKVEKNGTIISIILGVGSSRMLYDIVPVVSFKGWPAVAQSWLMENHFWDGKITEEEVISGFYLVPACSYKGKKDNEWRLSFARSEVQLKKCISSSLMQAYQACKAIIIKLLSRPKAISPYHLRSMMLWACDRLPANYLAQEDYAAHFLLGLIDDLQHCLVNKMCPNYFIPQCNMLEHLSEETVMLHARKLSSVRSDPAEHLRTAIEHVKAANRLTLELQRRGSTTSIPSPQSDGGDPNQPDDRLAKKLQQLVTENPGKSISVFINPDDVTRPHFRIDDKFF [MB21D2] | 0.0815 | -0.0032 | 56.3 °C | 56.5 °C | 1.1 | -0.608
MGVEGCTKCIKYLLFVFNFVFWLAGGVILGVALWLRHDPQTTNLLYLELGDKPAPNTFYVGIYILIAVGAVMMFVGFLGCYGAIQESQCLLGTFFTCLVILFACEVAAGIWGFVNKDQIAKDVKQFYDQALQQAVVDDDANNAKAVVKTFHETLDCCGSSTLTALTTSVLKNNLCPSGSNIISNLFKEDCHQKIDDLFSGKLYLIGIAAIVVAVIMIFEMILSMVLCCGIRNSSVY [CD81] | 0.0932 | -0.0908 | 56.1 °C |  | 0.287 | -0.69
MALLVRVLRNQTSISQWVPVCSRLIPVSPTQGQGDRALSRTSQWPQMSQSRACGGSEQIPGIDIQLNRKYHTTRKLSTTKDSPQPVEEKVGAFTKIIEAMGFTGPLKYSKWKIKIAALRMYTSCVEKTDFEEFFLRCQMPDTFNSWFLITLLHVWMCLVRMKQEGRSGKYMCRIIVHFMWEDVQQRGRVMGVNPYILKKNMILMTNHFYAAILGYDEGILSDDHGLAAALWRTFFNRKCEDPRHLELLVEYVRKQIQYLDSMNGEDLLLTGEVSWRPLVEKNPQSILKPHSPTYNDEGL [UQCC1] | -0.367 | -0.25 | 54.2 °C | 54.1 °C | 0.338 | -0.909
MATAATIPSVATATAAALGEVEDEGLLASLFRDRFPEAQWRERPDVGRYLRELSGSGLERLRREPERLAEERAQLLQQTRDLAFANYKTFIRGAECTERIHRLFGDVEASLGRLLDRLPSFQQSCRNFVKEAEEISSNRRMNSLTLNRHTEILEILEIPQLMDTCVRNSYYEEALELAAYVRRLERKYSSIPVIQGIVNEVRQSMQLMLSQLIQQLRTNIQLPACLRVIGYLRRMDVFTEAELRVKFLQARDAWLRSILTAIPNDDPYFHITKTIEASRVHLFDIITQYRAIFSDEDPLLPPAMGEHTVNESAIFHGWVLQKVSQFLQVLETDLYRGIGGHLDSLLGQCMYFGLSFSRVGADFRGQLAPVFQRVAISTFQKAIQETVEKFQEEMNSYMLISAPAILGTSNMPAAVPATQPGTLQPPMVLLDFPPLACFLNNILVAFNDLRLCCPVALAQDVTGALEDALAKVTKIILAFHRAEEAAFSSGEQELFVQFCTVFLEDLVPYLNRCLQVLFPPAQIAQTLGIPPTQLSKYGNLGHVNIGAIQEPLAFILPKRETLFTLDDQALGPELTAPAPEPPAEEPRLEPAGPACPEGGRAETQAEPPSVGP [COG8] | -0.00808 | -0.112 | 50.6 °C | 48.4 °C | 0.73 | 1.67
MGSQVSVESGALHVVIVGGGFGGIAAASQLQALNVPFMLVDMKDSFHHNVAALRASVETGFAKKTFISYSVTFKDNFRQGLVVGIDLKNQMVLLQGGEALPFSHLILATGSTGPFPGKFNEVSSQQAAIQAYEDMVRQVQRSRFIVVVGGGSAGVEMAAEIKTEYPEKEVTLIHSQVALADKELLPSVRQEVKEILLRKGVQLLLSERVSNLEELPLNEYREYIKVQTDKGTEVATNLVILCTGIKINSSAYRKAFESRLASSGALRVNEHLQVEGHSNVYAIGDCADVRTPKMAYLAGLHANIAVANIVNSVKQRPLQAYKPGALTFLLSMGRNDGVGQISGFYVGRLMVRLTKSRDLFVSTSWKTMRQSPP [AIFM2] | 0.112 | -0.209 | 55.3 °C | 53.7 °C | -1.05 | -2.26
MSQSKGKKRNPGLKIPKEAFEQPQTSSTPPRDLDSKACISIGNQNFEVKADDLEPIMELGRGAYGVVEKMRHVPSGQIMAVKRIRATVNSQEQKRLLMDLDISMRTVDCPFTVTFYGALFREGDVWICMELMDTSLDKFYKQVIDKGQTIPEDILGKIAVSIVKALEHLHSKLSVIHRDVKPSNVLINALGQVKMCDFGISGYLVDSVAKTIDAGCKPYMAPERINPELNQKGYSVKSDIWSLGITMIELAILRFPYDSWGTPFQQLKQVVEEPSPQLPADKFSAEFVDFTSQCLKKNSKERPTYPELMQHPFFTLHESKGTDVASFVKLILGD [MAP2K6] | 0.225 | -0.158 | 51.4 °C | 52.5 °C | 1.49 | 0.537
ATR | -0.368 | -0.097 | 50.7 °C | 50.5 °C | -0.0687 | 0.0624
MEESPLSRAPSRGGVNFLNVARTYIPNTKVECHYTLPPGTMPSASDWIGIFKVEAACVRDYHTFVWSSVPESTTDGSPIHTSVQFQASYLPKPGAQLYQFRYVNRQGQVCGQSPPFQFREPRPMDELVTLEEADGGSDILLVVPKATVLQNQLDESQQERNDLMQLKLQLEGQVTELRSRVQELERALATARQEHTELMEQYKGISRSHGEITEERDILSRQQGDHVARILELEDDIQTISEKVLTKEVELDRLRDTVKALTREQEKLLGQLKEVQADKEQSEAELQVAQQENHHLNLDLKEAKSWQEEQSAQAQRLKDKVAQMKDTLGQAQQRVAELEPLKEQLRGAQELAASSQQKATLLGEELASAAAARDRTIAELHRSRLEVAEVNGRLAELGLHLKEEKCQWSKERAGLLQSVEAEKDKILKLSAEILRLEKAVQEERTQNQVFKTELAREKDSSLVQLSESKRELTELRSALRVLQKEKEQLQEEKQELLEYMRKLEARLEKVADEKWNEDATTEDEEAAVGLSCPAALTDSEDESPEDMRLPPYGLCERGDPGSSPAGPREASPLVVISQPAPISPHLSGPAEDSSSDSEAEDEKSVLMAAVQSGGEEANLLLPELGSAFYDMASGFTVGTLSETSTGGPATPTWKECPICKERFPAESDKDALEDHMDGHFFFSTQDPFTFE [CALCOCO1] | 0.13 | -0.128 | 50.2 °C | 50.3 °C | 0.0224 | 0.762
OXSR1 | 0.197 | -0.146 | 49.1 °C | 49.6 °C | 1.02 | 0.906
PNKP | 0.193 | -0.0487 | 48.6 °C | 49.3 °C | 0.324 | 1.25
MWALRAAVRPGLRLSRVGRGRSAPRAAAPSCPARALAAVGRRSPGNLEGPWGGGRGLRADGGRSRTGDDEEEPEDADENAEEELLRGEPLLPAGTQRVCLVHPDVKWGPGKSQMTRAEWQVAEATALVHTLDGWSVVQTMVVSTKTPDRKLIFGKGNFEHLTEKIRGSPDITCVFLNVERMAAPTKKELEAAWGVEVFDRFTVVLHIFRCNARTKEARLQVALAEMPLHRSNLKRDVAHLYRGVGSRYIMGSGESFMQLQQRLLREKEAKIRKALDRLRKKRHLLRRQRTRREFPVISVVGYTNCGKTTLIKALTGDAAIQPRDQLFATLDVTAHAGTLPSRMTVLYVDTIGFLSQLPHGLIESFSATLEDVAHSDLILHVRDVSHPEAELQKCSVLSTLRGLQLPAPLLDSMVEVHNKVDLVPGYSPTEPNVVPVSALRGHGLQELKAELDAAVLKATGRQILTLRVRLAGAQLSWLYKEATVQEVDVIPEDGAADVRVIISNSAYGKFRKLFPG [GTPBP6] | -0.232 | 0.00881 | 51.8 °C | 51.4 °C | -0.762 | -0.462
ATP5H | 0.0908 | 0.46 | 54.9 °C | 52.9 °C | -5.39 | -6.92
MPKHEFSVDMTCGGCAEAVSRVLNKLGGVKYDIDLPNKKVCIESEHSMDTLLATLKKTGKTVSYLGLE [ATOX1] | -0.375 | 0.149 | 54.8 °C | 52.8 °C | -3.27 | -2.04
VPS13C | -0.229 | -0.127 | 52.7 °C | 53.1 °C | -0.0535 | -0.882
MAAVWQQVLAVDARYNAYRTPTFPQFRTQYIRRRSQLLRENAKAGHPPALRRQYLRLRGQLLGQRYGPLSEPGSARAYSNSIVRSSRTTLDRMEDFEDDPRALGARGHRRSVSRGSYQLQAQMNRAVYEDRPPGSVVPTSAAEASRAMAGDTSLSENYAFAGMYHVFDQHVDEAVPRVRFANDDRHRLACCSLDGSISLCQLVPAPPTVLRVLRGHTRGVSDFAWSLSNDILVSTSLDATMRIWASEDGRCIREIPDPDSAELLCCTFQPVNNNLTVVGNAKHNVHVMNISTGKKVKGGSSKLTGRVLALSFDAPGRLLWAGDDRGSVFSFLFDMATGKLTKAKRLVVHEGSPVTSISARSWVSREARDPSLLINACLNKLLLYRVVDNEGTLQLKRSFPIEQSSHPVRSIFCPLMSFRQGACVVTGSEDMCVHFFDVERAAKAAVNKLQGHSAPVLDVSFNCDESLLASSDASGMVIVWRREQK [WDR13] | 0.0237 | -0.174 | 53.2 °C | 53 °C | 0.118 | 0.204
MGSMFRSEEVALVQLFLPTAAAYTCVSRLGELGLVEFRDLNASVSAFQRRFVVDVRRCEELEKTFTFLQEEVRRAGLVLPPPKGRLPAPPPRDLLRIQEETERLAQELRDVRGNQQALRAQLHQLQLHAAVLRQGHEPQLAAAHTDGASERTPLLQAPGGPHQDLRVNFVAGAVEPHKAPALERLLWRACRGFLIASFRELEQPLEHPVTGEPATWMTFLISYWGEQIGQKIRKITDCFHCHVFPFLQQEEARLGALQQLQQQSQELQEVLGETERFLSQVLGRVLQLLPPGQVQVHKMKAVYLALNQCSVSTTHKCLIAEAWCSVRDLPALQEALRDSSMEEGVSAVAHRIPCRDMPPTLIRTNRFTASFQGIVDAYGVGRYQEVNPAPYTIITFPFLFAVMFGDVGHGLLMFLFALAMVLAENRPAVKAAQNEIWQTFFRGRYLLLLMGLFSIYTGFIYNECFSRATSIFPSGWSVAAMANQSGWSDAFLAQHTMLTLDPNVTGVFLGPYPFGIDPIWSLAANHLSFLNSFKMKMSVILGVVHMAFGVVLGVFNHVHFGQRHRLLLETLPELTFLLGLFGYLVFLVIYKWLCVWAARAASAPSILIHFINMFLFSHSPSNRLLYPRQEVVQATLVVLALAMVPILLLGTPLHLLHRHRRRLRRRPADRQEENKAGLLDLPDASVNGWSSDEEKAGGLDDEEEAELVPSEVLMHQAIHTIEFCLGCVSNTASYLRLWALSLAHAQLSEVLWAMVMRIGLGLGREVGVAAVVLVPIFAAFAVMTVAILLVMEGLSAFLHALRLHWVEFQNKFYSGTGYKLSPFTFAATDD [TCIRG1] | -0.278 | 0.0336 | 53 °C | 54.1 °C | -2.43 | -1.47
MESNKDEAERCISIALKAIQSNQPDRALRFLEKAQRLYPTPRVRALIESLNQKPQTAGDQPPPTDTTHATHRKAGGTDAPSANGEAGGESTKGYTAEQVAAVKRVKQCKDYYEILGVSRGASDEDLKKAYRRLALKFHPDKNHAPGATEAFKAIGTAYAVLSNPEKRKQYDQFGDDKSQAARHGHGHGDFHRGFEADISPEDLFNMFFGGGFPSSNVHVYSNGRMRYTYQQRQDRRDNQGDGGLGVFVQLMPILILILVSALSQLMVSSPPYSLSPRPSVGHIHRRVTDHLGVVYYVGDTFSEEYTGSSLKTVERNVEDDYIANLRNNCWKEKQQKEGLLYRARYFGDTDMYHRAQKMGTPSCSRLSEVQASLHG [DNAJB12] | 0.104 | -0.00489 | 49.4 °C | 50.4 °C | 2.37 | 0.328
